Consider one protein from paper PMC12337650 (iScience, 2025).

The data set deals with the molecule itself. Briefly: cross-linking.

B1: hIRE1α(CD) (residues 469–977) (domain or fragment)
chain: HQQQQLQHQQFQKELEKIQLLQQQQQQLPFHPPGDTAQDGELLDTSGPYSESSGTSSPSTSPRASNHSLCSGSSASKAGSSPSLEQDDGDEETSVVIVGKISFCPKDVLGHGAEGTIVYRGMFDNRDVAVKRILPECFSFADREVQLLRESDEHPNVIRYFCTEKDRQFQYIAIELCAATLQEYVEQKDFAHLGLEPITLLQQTTSGLAHLHSLNIVHRDLKPHNILISMPNAHGKIKAMISDFGLCKKLAVGRHSFSRRSGVPGTEGWIAPEMLSEDCKENPTYTVDIFSAGCVFYYVISEGSHPFGKSLQRQANILLGACSLDCLHPEKHEDVIARELIEKMIAMDPQKRPSAKHVLKHPFFWSLEKQLQFFQDVSDRIEKESLDGPIVKQLERGGRAVVKMDWRENITVPLQTDLRKFRTYKGGSVRDLLRAMRNKKHHYRELPAEVRETLGSLPDDFVCYFTSRFPHLLAHTYRAMELCSHERLFQPYYFHEPPEPQPPVTPDAL
Turning to B1, the binding result is “binds”.
